Changes are numbered by the printed parent chain.
Tests used:
[1] = target: T1, human TIGIT on Jurkat cells (TIGIT/NFAT reporter Jurkat cells, BPS Bioscience #60538); Promega TIGIT Effector … (human, UniProt Q495A1 22-244); test: flow cytometry, TIGIT/NFAT Jurkat cells, 10 ug/ml
T1 construct: whole, on cells; Same protein on two bought Jurkat lines (flow cytometry: BPS; bioassay: Promega); also called hu TIGIT cells; cells expressing human TIGIT
T1 sequence (looked up): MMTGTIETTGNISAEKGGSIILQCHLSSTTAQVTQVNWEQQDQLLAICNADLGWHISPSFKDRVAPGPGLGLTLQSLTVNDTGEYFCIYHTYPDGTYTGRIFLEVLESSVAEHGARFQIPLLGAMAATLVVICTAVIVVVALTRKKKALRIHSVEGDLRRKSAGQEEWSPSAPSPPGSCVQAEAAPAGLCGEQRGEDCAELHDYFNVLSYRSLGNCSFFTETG

[2] = target: T2, His-tagged cynomolgus monkey TIGIT (Acro Biosystems #TIT-05223) (cynomolgus monkey, UniProt A0A7N9I9V4 89-209); test: ELISA, coated His-TIGIT, 1 ug/ml
T2 construct: Bought protein; also called cyno TIGIT; cynomolgus TIGIT; not shown: His tag

[3] = target: T3, his-tagged human TIGIT (Acro Biosystems #TIT-H52H3) (human, UniProt Q495A1 22-141); test: ELISA, coated His-TIGIT, 1 ug/ml
T3 construct: Bought protein; also called His-tagged-TIGIT (human); not shown: his tag
T3 sequence (looked up): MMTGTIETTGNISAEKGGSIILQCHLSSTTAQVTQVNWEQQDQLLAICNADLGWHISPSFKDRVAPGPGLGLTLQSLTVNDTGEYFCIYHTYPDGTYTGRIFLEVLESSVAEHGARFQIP

[4] = target: T4, his-tagged murine TIGIT (Acro Biosystems #TIT-M52E6) (murine, UniProt P86176 29-148, limits assumed); test: ELISA, coated His-TIGIT, 1 ug/ml
T4 construct: Bought protein; also called mouse his-tagged TIGIT; not shown: his tag
T4 sequence (looked up): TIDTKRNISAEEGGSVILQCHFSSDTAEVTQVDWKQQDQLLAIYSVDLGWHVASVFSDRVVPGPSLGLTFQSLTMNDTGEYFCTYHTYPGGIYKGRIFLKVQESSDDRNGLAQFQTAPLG

[5] = target: T2, His-tagged cynomolgus monkey TIGIT …; test: SPR (Carterra LSA), scFv-Fc captured, His-TIGIT analyte
Procedure, shortened: (§1)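 SPR: scFv-Fc from supernatants (diluted 30-fold in HBSTE) captured on anti-human Fc-coupled HC30M chip; His-tagged TIGIT injected as 1:2 dilution series. Kinetic affinities fitted from sensorgrams.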

[6] = target: T3, his-tagged human TIGIT (Acro Biosystems …); test: as above
Procedure, shortened: as §1

[7] = target: T2, His-tagged cynomolgus monkey TIGIT …; test: SPR (Carterra LSA), scFv-Fc captured, His-TIGIT analyte; repeat
Procedure: (§2) Binding affinities of anti-TIGIT antibodies to human, cyno, and murine TIGIT were measured by Surface Plasmon Resonance (SPR) on a Carterra LSA instrument. Goat anti-human Fc antibody was amine coupled to a HC30M chip. ScFv-Fc supernatants were diluted 30-fold with HBSTE and were captured by the anti-human Fc coupled HC30M chip. A 1:2 dilution series of his-tagged human TIGIT, starting at 400 nM, was injected onto the chip for binding. A dilution series was also carried out for cyno TIGIT and murine TIGIT. Data were analyzed using the Carterra™ Kinetics software.

[8] = target: T1, human TIGIT on Jurkat cells (TIGIT/NFAT …); test: cell-based or functional assay
[9] = target: T4, his-tagged murine TIGIT (Acro …); test: SPR (Carterra LSA), scFv-Fc captured, His-TIGIT analyte
Procedure, shortened: as §1

[10] = target: T4, his-tagged murine TIGIT (Acro …); test: SPR (Carterra LSA), scFv-Fc captured, His-TIGIT analyte; repeat
Procedure: as §2

T2 sequence (A0A7N9I9V4 entry or part of it): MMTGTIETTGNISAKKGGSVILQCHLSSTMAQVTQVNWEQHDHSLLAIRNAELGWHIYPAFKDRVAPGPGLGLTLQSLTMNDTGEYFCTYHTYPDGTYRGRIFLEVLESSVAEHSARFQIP

B1: 43586p2.A03 (scFv, V domains shown)
VH: EVQLLESGGGLVQPGGSLRLSCAASGFTFTSYAMSWVRQAPGKGLEWVAGISYIGRNEYYADSVKGRLTISRDNSKNTLYLQMNNLRAEDTAIYYCAKHLTGGTTDYYYYGMDVWGQGTTVTVSS
VL: QSVLTQPPSASGTPGQRVTISCSGSTSNIGTSRYVHWYQQLPGTAPKLLIYFDSQRPSGVPDRFSASKSGTSASLAISGLQSEDEADYYCATWDDSLSAWVFGGGTKLTVL
B1 was tested, and the MFI [1] was 9070 MFI, the “Elisa OD450” value [2] was 1.41 OD450 and the “Elisa OD450” value [3] was 1.96 OD450. For the same binder, the “Elisa OD450” value [4] was 0.046 OD450, the Kd [5] was 63 nM and the Kd [6] was 0.386 nM. The Kd [7] was 33 nM and the “max. signal (% of 22G2)” value [8] was 109 % of 22G2.

B2: 43586p2.G10 (scFv, V domains shown)
VH: EVQLLESGGGLVQPGGSLRLSCAASGFTFDDYVMSWVRQAPGKGLEWVSLINWSGGTTYYADSVKGRFTISRDNSKNTLYLQMNSLRAEDTAVYYCAKHWIVYQYGMDVWGQGTTVTVSS
VL: QSVLTQPSSASGTPGQRVTISCSGTISNIETKYVSWYKYVSWYQQLPGTAPKLLIYNNVQRPSGVPDRFSGSQSGTSASLAISGLQSEDEAHYYCASWEGGLNSWVFGGGTKLTVL
With B2 the MFI [1] was 9400 MFI, the “Elisa OD450” value [2] was 1.83 OD450 and the “Elisa OD450” value [3] was 2.21 OD450. The “Elisa OD450” value [4] was 2.23 OD450, the Kd [6] was 0.267 nM and the Kd [9] was 3.05 nM. The Kd [7] was 3.7 nM, the Kd [10] was 0.919 nM and the “max. signal (% of 22G2)” value [8] was 99 % of 22G2.

B3: 43645p1.H10 (scFv, V domains shown)
VH: B2 VH with P14A, S35T, G56D, T57R, A97V, W100N, I101L, V102N, Q104Y
VL: QSVLTQPPSVSGTPGQRVTISCSGTISNVGNKYVSWYQQVPGTAPKLLIDYNQRPSGVPDRFSGSQSGTSASLTISGLQSEDEADYYCATWDDSLKGWVFGGGTKLTVL
B3 was tested, and the MFI [1] was 10000 MFI, the “Elisa OD450” value [2] was 1.85 OD450 and the “Elisa OD450” value [3] was 2 OD450. For the same binder, the “Elisa OD450” value [4] was 1.7 OD450, the Kd [6] was 0.128 nM and the Kd [7] was 0.181 nM. The Kd [10] was 0.595 nM and the “max. signal (% of 22G2)” value [8] was 109 % of 22G2.

B4: 43586p2.H02 (scFv, V domains shown)
VH: EVQLLESGGGLVQPGGSLRLSCATSGFTVSDHYVSWVRQAPGKGLEWVSTSSSTNWNDGRTYYADSVKGRFTISRDNSENTLYLQMNSLRAEDTAVYYCAKGSYGMDVWGQGTTVTVSS
VL: QSVLTQPPSASGTPGQRVTISCSASNSYIGTKYFYWYQQLPGTAPKLLIYLDSQRPSGVPDRFSGSKSGTSVSLAISGLQSEDEADYYCAFWDDHLHGWVFGGGTKLTVL
With B4 the MFI [1] was 9130 MFI, the “Elisa OD450” value [2] was 1.09 OD450 and the “Elisa OD450” value [3] was 2 OD450. For the same binder, the “Elisa OD450” value [4] was 1.93 OD450, the Kd [5] was 334 nM and the Kd [6] was 2.53 nM. For the same binder, the Kd [9] was 3.94 nM and the “max. signal (% of 22G2)” value [8] was 80 % of 22G2.

B5: 43645p1.B2 (scFv, V domains shown)
VH: EVQLLESGGGLVQPGGSLRLSCATSGFTFSSYWMSWVRQAPGKGLEWVSGIHISDSTYYADSVKGRFTISRDNSKNTLYLQMNSLRAEDTAVYYCAKGHTVLQYGMDVWGQGTTVTVSS
VL: QSGLTQPPSASGTPGQRVTISCSGDISNTRNNYVSWYQQLPGTAPKLLIYGNHQRPSGVPDRFSGSKSATSASLAISGLQSEDEADYHCGTWDNTLNAWVFGGGTKLTVL
In the case of B5, the MFI [1] is reported as 8950 MFI, the “Elisa OD450” value [2] is reported as 1.61 OD450 and the “Elisa OD450” value [3] is reported as 2.42 OD450. The “Elisa OD450” value [4] was 1.85 OD450, the Kd [6] was 0.0464 nM and the Kd [7] was 0.93 nM. The Kd [10] was 42 nM and the “max. signal (% of 22G2)” value [8] was 111 % of 22G2.

B6: 43645p1.D3 (scFv, V domains shown)
VH: B5 VH with T24A
VL: B5 VL with H88Y
B6 was tested, and the MFI [1] was 9350 MFI, the “Elisa OD450” value [2] was 1.74 OD450 and the “Elisa OD450” value [3] was 2.13 OD450. For the same binder, the “Elisa OD450” value [4] was 1.9 OD450, the Kd [6] was 0.0171 nM and the Kd [7] was 0.32 nM. The Kd [10] was 19 nM and the “max. signal (% of 22G2)” value [8] was 115 % of 22G2.

B7: 43645p1.G5 (scFv, V domains shown)
VH: EVQLLESGGGLVQPGGSLRLSCAASGFTFSSYYMSWVRQAPGKGLEWVSAISIFSGDSTYYADSVKGRFTISRDNSKNTLYLQMNSLRAEDTAVYYCAKSHTVLQYGMDVWGQGTTVTVSS
VL: B5 VL with G3V, D25V, I26T, T29I, N32Y, H53D, A69G, H88Y
B7 was tested, and the MFI [1] was 12400 MFI, the “Elisa OD450” value [2] was 1.73 OD450 and the “Elisa OD450” value [3] was 1.94 OD450. For the same binder, the “Elisa OD450” value [4] was 1.01 OD450, the Kd [6] was 0.0507 nM and the Kd [7] was 0.368 nM. The “max. signal (% of 22G2)” value [8] was 99 % of 22G2.

B8: 43645p1.E3 (scFv, V domains shown)
VH: EVQLLESGGGLVQPGGSLRLSCAASGFTFSSYAMSWVRQAPGKGLEWVSAIYFDGSIYDADSVKGRFTISRDNSKNTLYLQMNSLRDEDTAVYYCAKSHTVLQYGMDVWGQGTTVTVSS
VL: B5 VL with G3V, D25V, I26T, T29I, N32S, H53D, A69G, H88Y
With B8 the MFI [1] was 9950 MFI, the “Elisa OD450” value [2] was 1.53 OD450 and the “Elisa OD450” value [3] was 1.99 OD450. For the same binder, the “Elisa OD450” value [4] was 0.947 OD450, the Kd [5] was 6.96 nM and the Kd [6] was 0.0267 nM. The Kd [7] was 5.5 nM and the “max. signal (% of 22G2)” value [8] was 103 % of 22G2.

B9: 43586p1.1.H8 (scFv, V domains shown)
VH: EVQLLESGGGLVQPGGSLRLSCAASGFTFIDFWMSWVRQAPGKGLEWVSAISWIGDTYYYADSVKGRFTVSRDNSKNTVYLQMNSLRAEDTAVYYCAKHWTVYQYGMDVWGQGTTVTVSS
VL: QSVLTQPPSASGTPGQRVIISCSGSTSDIETKYVSWYQQLPGTAPKLLIYGNHQRPSGVPDRFSGSKSGTSASLAISGLQSEDEADYYCTAWDNTLKSWVFGGGTKLTVL
With B9 the MFI [1] was 9170 MFI, the “Elisa OD450” value [2] was 1.25 OD450 and the “Elisa OD450” value [3] was 1.93 OD450. For the same binder, the “Elisa OD450” value [4] was 0.048 OD450, the Kd [5] was 31.6 nM and the Kd [6] was 0.292 nM. For the same binder, the Kd [7] was 16 nM and the “max. signal (% of 22G2)” value [8] was 124 % of 22G2.

B10: 43586p1.2.F6 (scFv, V domains shown)
VH: EVQLLESGEGLVQPGGSLRLSCAASGFTFTSYLMSWVRQAPGKGLEWVSTITWDGDRTYYADSVKGRFTISRDNSKNTLYLQMNSLRVGDTAVYYCAKHWTVFQYGMDVWGQGTTVTVSS
VL: B9 VL with P8A, I19T, S25T, T26I, D28N, T90A, A91S, D93E, T95D
notes: Tested as scFv-Fc supernatant; also called 43586p1.2.F06
In the case of B10, the Kd [5] is reported as 38.1 nM, the Kd [6] is reported as 0.223 nM and the Kd [7] is reported as 4.6 nM.

B11: 43645p1.D1 (scFv, V domains shown)
VH: EVQLLESGGDLVQSGGSLRLSCAASGFSFWGYAMTWVRQAPGKGLEWVSTIAGNSYTYYADSVKGRFTISRDNSKNMVYLQMNGLRAEDTAVYYCAKDRSFYNYYDIDVWGQGTTVTVSS
VL: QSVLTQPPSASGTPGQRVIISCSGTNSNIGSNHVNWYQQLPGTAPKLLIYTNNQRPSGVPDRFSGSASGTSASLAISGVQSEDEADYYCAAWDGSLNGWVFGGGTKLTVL
In the case of B11, the MFI [1] is reported as 9250 MFI, the “Elisa OD450” value [2] is reported as 1.51 OD450 and the “Elisa OD450” value [3] is reported as 2.02 OD450. The “Elisa OD450” value [4] was 0.047 OD450, the Kd [5] was 17.6 nM and the Kd [6] was 0.343 nM. The Kd [7] was 2.9 nM, the Kd [10] was 14 nM and the “max. signal (% of 22G2)” value [8] was 111 % of 22G2.

B12: 43645p1.D8 (scFv, V domains shown)
VH: B11 VH with T57A
VL: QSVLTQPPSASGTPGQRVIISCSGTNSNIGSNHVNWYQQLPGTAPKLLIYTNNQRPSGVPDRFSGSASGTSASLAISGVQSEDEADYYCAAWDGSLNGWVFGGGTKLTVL
For B12, the MFI [1] was 10300 MFI, the “Elisa OD450” value [2] was 1.36 OD450 and the “Elisa OD450” value [3] was 1.77 OD450. The “Elisa OD450” value [4] was 0.053 OD450, the Kd [5] was 24.5 nM and the Kd [6] was 0.416 nM. For the same binder, the Kd [7] was 1.9 nM and the “max. signal (% of 22G2)” value [8] was 108 % of 22G2.
